The record followed here is PMC7089733.

The target of this data set is L7Ae;Nop5;fibrillarin L113K;V223E ((printed as Pf);(printed as Pf);(printed as Pf)) (UniProt Q8U160+Q8U4M1+Q8U4M2). The data set can be described thus: NMR PRE + SAXS/SANS ensemble. Particulars: half-loaded mono-RNP, 50 mM NaPi, 500 mM NaCl, pH 6.6, 100% D2O (NMR), 55 C, SANS in 42%:58% D2O:H2O, substrate at 1.2-1.25 molar equivalents, scale: % [on,off] conformers.

With “GCGAGCAAUGAUGAGUGAUGGGCGAACUGAGCUCGAAAGAGCAAUGAUGACGGAGGUGAUCACUGAGCUCGC / GCUUCGCCCAUCAC [st-sR26 + substrate D']”, the binding signal came out at 66.

Take “GCGAGCAAUGAUGAGUGAUGGGCGAACUGAGCUCGAAAGAGCAAUGAUGACGGAGGUGAUCACUGAGCUCGC / GUAGAUCACCUCCG [st-sR26 + substrate D]”: where the note is “ddG vs substrate D' 0.86 +/- 0.55 kcal/mol”, the binding signal is 34.
